The source of these data is patent US20250277045A1 (KEYMED BIOSCIENCES, published 2025).

For assay [1], the target named is T1, human CD3 on T cells (Jurkat cells; human peripheral blood CD4+ and CD8+ T cells) (human, UniProt P07766 23-207).
T1 construct: whole, on cells; also called CD3ε
The assay can be described thus: flow cytometry, Jurkat cells. Here is the method:
Jurkat cells in the logarithmic growth phase were added with 200 μg/mL murine IgG (Jackson ImmunoResearch, 115-005-03) and incubated on ice for 30 min. […] 50 μL/well Alexa Fluro647 labeled goat anti-human IgG Fc (1:300 dilution) was added to the secondary antibody, incubated on ice for 20 min, 50 μL/well PI was added after washing once, incubated for 5 min, and flow cytometer (BD C6) was used to perform detection.
A general note: In flow cytometry, cells or beads pass a laser one at a time.

Assay [2] deals with T2, human BCMA on cells (CHO-hBCMA clone 2C2; NCI-H929; RPMI-8226) (human, UniProt Q02223 1-184).
T2 construct: whole, on cells; also called Human BCMA-CHO; CHO-hBCMA-2C2
T2 sequence (looked up): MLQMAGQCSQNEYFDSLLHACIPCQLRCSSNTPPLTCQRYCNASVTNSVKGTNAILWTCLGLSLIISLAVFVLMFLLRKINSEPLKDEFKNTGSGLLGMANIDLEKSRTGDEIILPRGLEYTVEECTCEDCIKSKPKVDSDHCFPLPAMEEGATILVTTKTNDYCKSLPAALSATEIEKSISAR
Briefly: flow cytometry, NCI-H929 cells. Here is the method: (§1) The primary antibody was washed off, 50 μL/well Alexa Fluro647 labeled goat anti-human IgG Fc (1:300 dilution) was added, incubated on ice for 20 min, 50 μL/well PI was added after washing once, incubated for 5 min, and flow cytometer was used to perform detection.

The target in assay [3] is T2, human BCMA on cells (CHO-hBCMA clone …). Briefly: flow cytometry, RPMI-8226 cells. Here is the method:
as §1

Assay [4] has the same target. Briefly: flow cytometry, CHO-human BCMA cells. The protocol:
(§2) 50 μL/well Alexa Fluro647 labeled goat anti-human IgG Fc (1:300 dilution) was added to the secondary antibody, incubated on ice for 20 min, 50 μL/well PI solution (1:300) was added after washing once, incubated for 5 min, and flow cytometer was used to perform detection.

The target in assay [5] is T3, cynomolgus monkey BCMA on CHO cells (CHO-cynoBCMA clone 1A2) (cynomolgus monkey, UniProt A0A2K5UD97 1-183).
T3 construct: whole, on cells; also called Cynomolgus monkey BCMA-CHO; CHO-cynoBCMA-1A2
T3 sequence (A0A2K5UD97 entry or part of it): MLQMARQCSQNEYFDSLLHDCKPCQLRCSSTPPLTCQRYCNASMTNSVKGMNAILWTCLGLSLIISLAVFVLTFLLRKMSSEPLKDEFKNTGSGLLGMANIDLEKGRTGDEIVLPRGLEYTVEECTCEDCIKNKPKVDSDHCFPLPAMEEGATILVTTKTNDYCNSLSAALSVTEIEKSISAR
The assay can be described thus: flow cytometry, CHO-cynomolgus monkey BCMA cells. Here is the method:
as §2

In assay [6] the target is T1, human CD3 on T cells (Jurkat cells; …). The assay can be described thus: flow cytometry, peripheral blood CD4+ T cells (PBMC). Here is the method: (§3) Fresh human or cynomolgus monkey peripheral blood was taken and PBMC was isolated by Ficoll-Paque Plu (GE, 17-1440-03). […] 50 μL/well Alexa Fluro647 labeled goat anti-human IgG Fc (1:300 dilution) was added to the secondary antibody, ice bath for 20 min, 50 μL/well PI was added after washing once, incubated for 5 min, and flow cytometer (BD C6) was used to perform detection.

The target is the same in assay [7]. Briefly: flow cytometry, peripheral blood CD8+ T cells (PBMC). Here is the method: as §3
Assay [8] has as its target T4, human BCMA recombinant antigen (human, UniProt Q02223 1-53).
T4 construct: range 1-53; also called human BCMA recombinant protein
T4 sequence (looked up): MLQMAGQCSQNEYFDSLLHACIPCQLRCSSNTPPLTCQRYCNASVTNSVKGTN
The assay can be described thus: SPR (Biacore T200), antigen amine-coupled to CM5, antibody as analyte, 1:1 model. The protocol: (§4) 10 μg/mL human or cynomolgus monkey BCMA or CD3εγ recombinant antigen was bound to a CM5 chip (GE healthcare) by amino coupling, controlling the amount of antigen bound to approximately 200 RU. After the baseline plateau, gradient-diluted antibodies (from 10 μg/mL, 2-fold dilutions for 7 gradients) flowed through the chip at a flow rate of 30 μL/min for a binding time of 350 seconds and a dissociation time of 600 seconds. Kinetic constants were fitted using Biacore T200 evaluation software with a 1:1 binding model.
(In general: Surface plasmon resonance follows binding to a sensor surface in real time, without labels.)

Assay [9] concerns the target T5, cynomolgus monkey BCMA recombinant antigen (cynomolgus monkey, UniProt A0A2K5UD97 1-51).
T5 construct: range 1-52
The assay is described as above. The protocol: as §4

Assay [10] addresses T6, cynomolgus monkey CD3εγ-Fc heterodimer (cynomolgus monkey).
T6 chain 1: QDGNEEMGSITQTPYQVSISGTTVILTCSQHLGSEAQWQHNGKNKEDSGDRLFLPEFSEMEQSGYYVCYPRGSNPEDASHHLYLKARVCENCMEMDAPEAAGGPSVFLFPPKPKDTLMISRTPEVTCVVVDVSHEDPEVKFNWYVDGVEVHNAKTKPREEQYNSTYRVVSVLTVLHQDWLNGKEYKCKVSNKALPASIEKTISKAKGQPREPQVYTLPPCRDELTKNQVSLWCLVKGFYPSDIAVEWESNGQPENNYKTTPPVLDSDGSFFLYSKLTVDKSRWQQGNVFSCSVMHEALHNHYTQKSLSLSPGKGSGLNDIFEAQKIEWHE
T6 chain 2: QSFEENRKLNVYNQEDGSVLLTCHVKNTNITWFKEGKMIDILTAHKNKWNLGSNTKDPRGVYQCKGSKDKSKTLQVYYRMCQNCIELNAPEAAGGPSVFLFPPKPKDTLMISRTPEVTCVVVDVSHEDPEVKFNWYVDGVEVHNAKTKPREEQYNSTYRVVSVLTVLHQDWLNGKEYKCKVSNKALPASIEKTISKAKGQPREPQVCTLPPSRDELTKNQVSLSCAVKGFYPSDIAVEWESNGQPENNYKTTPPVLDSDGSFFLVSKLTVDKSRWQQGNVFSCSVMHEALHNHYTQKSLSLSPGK
The description is as above. Here is the method: as §4

The target in assay [11] is T4, human BCMA recombinant antigen. Briefly: competition ELISA, coated human BCMA, antibody varied, then biotinylated human APRIL at 240 ng/mL, SA-HRP. Here is the method:
1 μg/mL human BCMA recombinant antigen was prepared with pH 9.6 carbonic acid buffer, added to a maxisorp96-well plate, and coated overnight at 4° C. After blocking with 5% skim milk/PBS for 1 h at room temperature, 50 μL antibody per well (4-fold dilution from 30 μg/mL for a total of 10 gradients) was added and incubated for 30 min at room temperature. […] After 3 washes with 0.05% PBST (PBS+0.05% Tween-20) and PBS respectively, 100 μL of SA-HRP (diluted 1:8000) was added to each well and incubated at room temperature for 45 min. Washing 3 times with 0.05% PBST and PBS respectively, 100 μL TMB color-developing solution was added into each well, after 10 min, 50 μL concentrated sulfuric acid was added into each well to stop the reaction, read OD450 nm by a microplate reader, and perform three-parameter fitting curve using Graphpad software.

T1 sequence (P07766 23-207): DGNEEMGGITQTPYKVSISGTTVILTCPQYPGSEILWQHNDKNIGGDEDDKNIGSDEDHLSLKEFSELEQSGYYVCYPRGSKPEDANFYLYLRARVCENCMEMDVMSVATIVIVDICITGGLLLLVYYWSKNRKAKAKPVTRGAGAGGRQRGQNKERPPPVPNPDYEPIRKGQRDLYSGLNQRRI
T5 sequence (A0A2K5UD97 entry or part of it): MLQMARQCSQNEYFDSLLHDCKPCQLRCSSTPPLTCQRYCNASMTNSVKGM

B1: BCMA×CD3 κλ005 (bispecific antibody, human IgG4 S228P, kappa, lambda)
light 1: DIVLTQSPASLAVSPGQRATITCRASKSVSTSGYSYMHWYQKKPGQPPKLLIYLASNLESGVPARFSGSGSGTDFTLTINPVEAEDTANYYCQHSRELPWTFGQGTKVEIKRTVAAPSVFIFPPSDEQLKSGTASVVCLLNNFYPREAKVQWKVDNALQSGNSQESVTEQDSKDSTYSLSSTLTLSKADYEKHKVYACEVTHQGLSSPVTKSFNRGEC
heavy 1: QVQLVQSGSELKKPGASVKVSCKASGYIFTNFGMNWVREAPGQGLEWMGWINTYTGEQIYADGFTGRFVFSLDTSVSTAYLQISSLKAEDTAVYFCARGEIYYGYDVGFVYWGQGTLVTVSSASTKGPSVFPLAPCSRSTSESTAALGCLVKDYFPEPVTVSWNSGALTSGVHTFPAVLQSSGLYSLSSVVTVPSSSLGTKTYTCNVDHKPSNTKVDKRVESKYGPPCPPCPAPEFEGGPSVFLFPPKPKDTLMISRTPEVTCVVVDVSQEDPEVQFNWYVDGVEVHNAKTKPREEQFNSTYRVVSVLTVLHQDWLNGKEYKCKVSNKGLASSIEKTISKAKGQPREPQVCTLPPSQEEMTKNQVSLSCAVKGFYPSDIAVEWESNGQPENNYKTTPPVLDSDGSFFLVSKLTVDKSRWQEGNVFSCSVMHEALHNHYTQKSLSLSLGK
light 2: QAVVTQEPSLTVSPGGTVTLTCRSSTGAVTTSNYANWVQEKPGQAPRGLIGGTNKRAPWTPARFSGSLLGGKAALTITGAQAEDEAEYYCVLWYSNLWVFGGGTKLTVLGQPKAAPSVTLFPPSSEELQANKATLVCLISDFYPGAVTVAWKADSSPVKAGVETTTPSKQSNNKYAASSYLSLTPEQWKSHRSYSCQVTHEGSTVEKTVAPTECS
heavy 2: EVQLVESGGGLVQPGGSLRLSCAASGFTFNTYAMNWVRKAPGKGLEWVGRIRSKYNNYATYYADSVKDRFTISRDDSKNSLYLQMNSLKTEDTAVYYCVRHGNFGNSYVSWFAYWGQGTLVTVSSASTKGPSVFPLAPCSRSTSESTAALGCLVKDYFPEPVTVSWNSGALTSGVHTFPAVLQSSGLYSLSSVVTVPSSSLGTKTYTCNVDHKPSNTKVDKRVESKYGPPCPPCPAPEFEGGPSVFLFPPKPKDTLMISRTPEVTCVVVDVSQEDPEVQFNWYVDGVEVHNAKTKPREEQFNSTYRVVSVLTVLHQDWLNGKEYKCKVSNKGLASSIEKTISKAKGQPREPQVYTLPPCQEEMTKNQVSLWCLVKGFYPSDIAVEWESNGQPENNYKTTPPVLDSDGSFFLYSKLTVDKSRWQEGNVFSCSVMHEALHNHYTQKSLSLSLGK
Usually EC50 stands for the midpoint of the concentration-response curve. In general, Kd refers to the equilibrium constant for the complex coming apart. Regarding B1, the concentration for a half-maximal effect (EC50) in assay [1] is 51 nM; in assay [2], 33 nM; in assay [3] it was 38 nM; in assay [4] it was 24 nM; in [5], 3 nM; in [6], 66 nM. The EC50 in assay [7] was found to be 60 nM. The dissociation constant Kd worked out at 1.1 nM in assay [8], 0.09 nM in [9] and 20 nM in assay [10]. The “IC50 (read off the curve)” value in assay [11] is around 3 nM.

B2: BCMA×CD3 κλ006 (bispecific antibody, human IgG4 S228P, kappa, lambda)
light 1: DIVLTQSPASLAVSPGQRATITCRASKSVTTSGYSYIHWYQKKPGQPPKLLIYLASDLEAGVPARFSGSGSGTDFTLTINPVEAEDTANYYCQHSRELPWTFGQGTKVEIKRTVAAPSVFIFPPSDEQLKSGTASVVCLLNNFYPREAKVQWKVDNALQSGNSQESVTEQDSKDSTYSLSSTLTLSKADYEKHKVYACEVTHQGLSSPVTKSFNRGEC
heavy 1: QVQLVQSGSELKKPGASVKVSCKASGYIFTNFGMNWVREAPGQGLEWMGWINTYTGEQIYADGFTGRFVFSLDTSVSTAYLQISSLKAEDTAVYFCARGEIYYGYDVGFVYWGQGTLVTVSSASTKGPSVFPLAPCSRSTSESTAALGCLVKDYFPEPVTVSWNSGALTSGVHTFPAVLQSSGLYSLSSVVTVPSSSLGTKTYTCNVDHKPSNTKVDKRVESKYGPPCPPCPAPEFEGGPSVFLFPPKPKDTLMISRTPEVTCVVVDVSQEDPEVQFNWYVDGVEVHNAKTKPREEQFNSTYRVVSVLTVLHQDWLNGKEYKCKVSNKGLASSIEKTISKAKGQPREPQVCTLPPSQEEMTKNQVSLSCAVKGFYPSDIAVEWESNGQPENNYKTTPPVLDSDGSFFLVSKLTVDKSRWQEGNVFSCSVMHEALHNHYTQKSLSLSLGK
light 2: QAVVTQEPSLTVSPGGTVTLTCRSSTGAVTTSNYANWVQEKPGQAPRGLIGGTNKRAPWTPARFSGSLLGGKAALTITGAQAEDEAEYYCVLWYSNLWVFGGGTKLTVLGQPKAAPSVTLFPPSSEELQANKATLVCLISDFYPGAVTVAWKADSSPVKAGVETTTPSKQSNNKYAASSYLSLTPEQWKSHRSYSCQVTHEGSTVEKTVAPTECS
heavy 2: EVQLVESGGGLVQPGGSLRLSCAASGFTFNTYAMNWVRKAPGKGLEWVGRIRSKYNNYATYYADSVKDRFTISRDDSKNSLYLQMNSLKTEDTAVYYCVRHGNFGNSYVSWFAYWGQGTLVTVSSASTKGPSVFPLAPCSRSTSESTAALGCLVKDYFPEPVTVSWNSGALTSGVHTFPAVLQSSGLYSLSSVVTVPSSSLGTKTYTCNVDHKPSNTKVDKRVESKYGPPCPPCPAPEFEGGPSVFLFPPKPKDTLMISRTPEVTCVVVDVSQEDPEVQFNWYVDGVEVHNAKTKPREEQFNSTYRVVSVLTVLHQDWLNGKEYKCKVSNKGLASSIEKTISKAKGQPREPQVYTLPPCQEEMTKNQVSLWCLVKGFYPSDIAVEWESNGQPENNYKTTPPVLDSDGSFFLYSKLTVDKSRWQEGNVFSCSVMHEALHNHYTQKSLSLSLGK
Take B2: the half-maximal effective concentration (EC50) in [1] amounted to 56 nM; in assay [2], 32 nM; in assay [3], 19 nM; in assay [4] it was 16 nM; in assay [5], 3 nM; in assay [6], 91 nM. In assay [7], a half-maximal response (EC50) required 93 nM. In addition, the Kd stood at 1.2 nM in assay [8], 0.1 nM in [9] and 33 nM in [10]. Besides, the “IC50 (read off the curve)” value in [11] is around 2 nM.
